Experimental data taken from patent US7858745B2, “Use of specifically engineered enzymes to enhance the efficacy of prodrugs” (The Board of Trustees of the University of Illinois, priority 2003, dated 2010).

Experiments:
[1] = tested on: Nc1ccn([C@@H]2O[C@H](CO)[C@@H](O)C2(F)F)c(=O)n1; assay: purified protein, by the assay type; conditions: other: nucleoside as substrate, pH 7.5
[2] = tested on: Nc1ccn([C@H]2CC[C@@H](CO)O2)c(=O)n1; assay: purified protein, by the assay type; conditions: other: nucleoside as substrate, dCK 0.4 μM, ATP•Mg 1 mM, 37° C., pH 7.5
[3] = dCK 0.4 μM, ATP•Mg 1 mM, 37° C.

Wild Type dCK (Homo sapiens), sequence (chain, as listed by the source): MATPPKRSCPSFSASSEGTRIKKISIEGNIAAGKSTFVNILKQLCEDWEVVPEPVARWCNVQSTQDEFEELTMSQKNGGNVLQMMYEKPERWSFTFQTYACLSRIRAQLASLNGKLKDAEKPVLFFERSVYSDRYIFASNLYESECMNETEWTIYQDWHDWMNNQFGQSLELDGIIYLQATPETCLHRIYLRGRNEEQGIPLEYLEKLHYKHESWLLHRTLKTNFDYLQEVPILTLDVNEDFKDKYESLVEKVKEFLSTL
A100V/R104M/D133A-dCK (Homo sapiens; A100V/D133A/R104M), sequence (chain, as listed by the source A100V R104M D133A A100V D133A R104M): as the sequence (chain, as listed by the source) above, with A100V, R104M, D133A counted along it

| Substance | Km ([1]; triple mutant, 37.0 °C) [µM] | kcat ([1]; triple mutant, 37.0 °C) [s⁻¹] | kcat/Km ([1]; triple mutant, 37.0 °C) [M⁻¹ s⁻¹] | Km [1, 3] [µM] | kcat [1, 3] [s⁻¹] | kcat/Km [1, 3] [M⁻¹ s⁻¹] | Km [2] [µM] | kcat [2] [s⁻¹] | kcat/Km [2] [M⁻¹ s⁻¹] |
| --- | --- | --- | --- | --- | --- | --- | --- | --- | --- |
| A100V/R104M/D133A-dCK (Homo sapiens; A100V/D133A/R104M) | 50 | 3.52 | 70400 | – | – | – | – | – | – |
| Wild Type dCK (Homo sapiens) | – | – | – | 22.0 | 0.37 | 16800 | 406.8 | 0.18 | 400 |
